Article PMC3178552

Tests used:
[1] = biological target: vesicular stomatitis virus nucleoprotein lacking its 21 N-terminal residues (N[change]), MBP tag removed (vesicular stomatitis virus) (UniProt P03521); assay: SEC-MALS
[2] = biological target: vesicular stomatitis virus nucleoprotein lacking its 21 N-terminal residues (N[change]), MBP tag removed (vesicular stomatitis virus) (UniProt P03521); assay: crystal structure

## P60: the first 60 amino acids of VSV phosphoprotein P, a two-amino acid linker and a C-terminal His6-tag (from UniProt P03520 1-60) (peptide)
[1]
  stoichiometry N: 1

## vesicular stomatitis virus nucleoprotein lacking its 21 N-terminal residues (N[change]), MBP tag removed (from UniProt P03521 22-422) (domain or fragment)
[2]
  stoichiometry N: 10
